We go through six molecules from patent US20140087995A1 (published 2014).

Numbered stars: 1 amine (or outer) side, 2 acyl side, 3 side chain; on linkers, the order of the positions; unused ones are H or OH. Bridge positions count the residues as written; N and C are the ends. Side chains are listed from the residue outwards. Ends that are not written are not given here. * marks the point of attachment. C20 diacid = O=C(O)CCCCCCCCCCCCCCCCCCC(=O)*; γGlu = O=C(O)[C@H](CCC(=O)[*:2])N[*:1]; AEEA = NCCOCCOCC(=O)O

First the molecules themselves.
T1: human amylin receptor (amylin 3(a) receptor: human calcitonin receptor with RAMP-3) (human, UniProt P30988 25-474; O60896 24-148)
T1 construct: whole, on cells; also called hAmylin-R; hAmylinR
T1 sequence (looked up) 1: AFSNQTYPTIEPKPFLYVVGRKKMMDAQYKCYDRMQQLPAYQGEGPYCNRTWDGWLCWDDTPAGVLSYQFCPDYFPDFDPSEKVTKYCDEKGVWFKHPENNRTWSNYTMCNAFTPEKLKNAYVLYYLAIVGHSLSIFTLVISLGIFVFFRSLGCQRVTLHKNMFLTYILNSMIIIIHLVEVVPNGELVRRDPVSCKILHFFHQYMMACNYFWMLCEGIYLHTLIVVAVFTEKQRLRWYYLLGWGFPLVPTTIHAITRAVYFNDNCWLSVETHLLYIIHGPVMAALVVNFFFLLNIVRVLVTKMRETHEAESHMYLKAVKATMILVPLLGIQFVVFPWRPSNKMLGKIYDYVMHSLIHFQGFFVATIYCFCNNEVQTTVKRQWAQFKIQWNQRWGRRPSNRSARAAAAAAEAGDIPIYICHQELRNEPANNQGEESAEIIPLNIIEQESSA
T1 sequence (looked up) 2: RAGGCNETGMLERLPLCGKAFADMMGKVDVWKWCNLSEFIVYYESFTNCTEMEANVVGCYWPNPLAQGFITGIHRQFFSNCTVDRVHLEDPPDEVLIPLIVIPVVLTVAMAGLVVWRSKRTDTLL

B1: N^ε1-[2-[2-[2-[[2-[2-[2-[[(4S)-4-carboxy-4-(19-carboxynonadecanoylamino)butanoyl]amino]ethoxy]ethoxy]acetyl]amino]ethoxy]ethoxy]acetyl]-[Arg17,Pro21,Pro27,Glu35 … (peptide)
peptide: K([AEEA-AEEA-γGlu-C20 diacid])CNTATCATQRLANFLRHSSPNFGAIPSSTNVGSETY-NH2
modifications: disulfide 2-7; N-terminus assumed
SMILES: CC[C@H](C)[C@H](NC(=O)[C@H](C)NC(=O)CNC(=O)[C@H](Cc1ccccc1)NC(=O)[C@H](CC(N)=O)NC(=O)[C@@H]1CCCN1C(=O)[C@H](CO)NC(=O)[C@H](CO)NC(=O)[C@H](Cc1c[nH]cn1)NC(=O)[C@H](CCCNC(=N)N)NC(=O)[C@H](CC(C)C)NC(=O)[C@H](Cc1ccccc1)NC(=O)[C@H](CC(N)=O)NC(=O)[C@H](C)NC(=O)[C@H](CC(C)C)NC(=O)[C@H](CCCNC(=N)N)NC(=O)[C@H](CCC(N)=O)NC(=O)[C@@H](NC(=O)[C@H](C)NC(=O)[C@@H]1CSSC[C@H](NC(=O)[C@@H](N)CCCCNC(=O)COCCOCCNC(=O)COCCOCCNC(=O)CC[C@H](NC(=O)CCCCCCCCCCCCCCCCCCC(=O)O)C(=O)O)C(=O)N[C@@H](CC(N)=O)C(=O)N[C@@H]([C@@H](C)O)C(=O)N[C@@H](C)C(=O)N[C@@H]([C@@H](C)O)C(=O)N1)[C@@H](C)O)C(=O)N1CCC[C@H]1C(=O)N[C@@H](CO)C(=O)N[C@@H](CO)C(=O)N[C@H](C(=O)N[C@@H](CC(N)=O)C(=O)N[C@H](C(=O)NCC(=O)N[C@@H](CO)C(=O)N[C@@H](CCC(=O)O)C(=O)N[C@H](C(=O)N[C@@H](Cc1ccc(O)cc1)C(N)=O)[C@@H](C)O)C(C)C)[C@@H](C)O
notes: also called 25; compound 25
B2: N^ε1-[2-[2-[2-[[(4S)-4-carboxy-4-(19-carboxynonadecanoylamino)butanoyl]amino]ethoxy]ethoxy]acetyl]-[Ala14,Arg17,Pro21,Pro27,Pro31]-h-amylin (peptide)
peptide: K([AEEA-γGlu-C20 diacid])CNTATCATQRLAAFLRHSSPNFGAIPSSTPVGSNTY-NH2
modifications: disulfide 2-7; N-terminus assumed
SMILES: CC[C@H](C)[C@H](NC(=O)[C@H](C)NC(=O)CNC(=O)[C@H](Cc1ccccc1)NC(=O)[C@H](CC(N)=O)NC(=O)[C@@H]1CCCN1C(=O)[C@H](CO)NC(=O)[C@H](CO)NC(=O)[C@H](Cc1c[nH]cn1)NC(=O)[C@H](CCCNC(=N)N)NC(=O)[C@H](CC(C)C)NC(=O)[C@H](Cc1ccccc1)NC(=O)[C@H](C)NC(=O)[C@H](C)NC(=O)[C@H](CC(C)C)NC(=O)[C@H](CCCNC(=N)N)NC(=O)[C@H](CCC(N)=O)NC(=O)[C@@H](NC(=O)[C@H](C)NC(=O)[C@@H]1CSSC[C@H](NC(=O)[C@@H](N)CCCCNC(=O)COCCOCCNC(=O)CC[C@H](NC(=O)CCCCCCCCCCCCCCCCCCC(=O)O)C(=O)O)C(=O)N[C@@H](CC(N)=O)C(=O)N[C@@H]([C@@H](C)O)C(=O)N[C@@H](C)C(=O)N[C@@H]([C@@H](C)O)C(=O)N1)[C@@H](C)O)C(=O)N1CCC[C@H]1C(=O)N[C@@H](CO)C(=O)N[C@@H](CO)C(=O)N[C@H](C(=O)N1CCC[C@H]1C(=O)N[C@H](C(=O)NCC(=O)N[C@@H](CO)C(=O)N[C@@H](CC(N)=O)C(=O)N[C@H](C(=O)N[C@@H](Cc1ccc(O)cc1)C(N)=O)[C@@H](C)O)C(C)C)[C@@H](C)O
notes: also called 72; compound 72
B3: N^ε1-[2-[2-[2-[[2-[2-[2-[[(4S)-4-carboxy-4-(19-carboxynonadecanoylamino)butanoyl]amino]ethoxy]ethoxy]acetyl]amino]ethoxy]ethoxy]acetyl]-[Arg17,Pro21,Pro27,Pro31 … (peptide)
peptide: K([AEEA-AEEA-γGlu-C20 diacid])CNTATCATQRLANFLRHSSPNFGAIPSSTPVGSNTY-NH2
modifications: disulfide 2-7; N-terminus assumed
SMILES: CC[C@H](C)[C@H](NC(=O)[C@H](C)NC(=O)CNC(=O)[C@H](Cc1ccccc1)NC(=O)[C@H](CC(N)=O)NC(=O)[C@@H]1CCCN1C(=O)[C@H](CO)NC(=O)[C@H](CO)NC(=O)[C@H](Cc1c[nH]cn1)NC(=O)[C@H](CCCNC(=N)N)NC(=O)[C@H](CC(C)C)NC(=O)[C@H](Cc1ccccc1)NC(=O)[C@H](CC(N)=O)NC(=O)[C@H](C)NC(=O)[C@H](CC(C)C)NC(=O)[C@H](CCCNC(=N)N)NC(=O)[C@H](CCC(N)=O)NC(=O)[C@@H](NC(=O)[C@H](C)NC(=O)[C@@H]1CSSC[C@H](NC(=O)[C@@H](N)CCCCNC(=O)COCCOCCNC(=O)COCCOCCNC(=O)CC[C@H](NC(=O)CCCCCCCCCCCCCCCCCCC(=O)O)C(=O)O)C(=O)N[C@@H](CC(N)=O)C(=O)N[C@@H]([C@@H](C)O)C(=O)N[C@@H](C)C(=O)N[C@@H]([C@@H](C)O)C(=O)N1)[C@@H](C)O)C(=O)N1CCC[C@H]1C(=O)N[C@@H](CO)C(=O)N[C@@H](CO)C(=O)N[C@H](C(=O)N1CCC[C@H]1C(=O)N[C@H](C(=O)NCC(=O)N[C@@H](CO)C(=O)N[C@@H](CC(N)=O)C(=O)N[C@H](C(=O)N[C@@H](Cc1ccc(O)cc1)C(N)=O)[C@@H](C)O)C(C)C)[C@@H](C)O
notes: also called 96; compound 96
B4: N^ε1-[2-[2-[2-[[2-[2-[2-[[(4S)-4-carboxy-4-(19-carboxynonadecanoylamino)butanoyl]amino]ethoxy]ethoxy]acetyl]amino]ethoxy]ethoxy]acetyl]-[Arg17,Pro21,Pro27,Pro34 … (peptide)
peptide: K([AEEA-AEEA-γGlu-C20 diacid])CNTATCATQRLANFLRHSSPNFGAIPSSTNVGPNTY-NH2
modifications: disulfide 2-7; N-terminus assumed
SMILES: CC[C@H](C)[C@H](NC(=O)[C@H](C)NC(=O)CNC(=O)[C@H](Cc1ccccc1)NC(=O)[C@H](CC(N)=O)NC(=O)[C@@H]1CCCN1C(=O)[C@H](CO)NC(=O)[C@H](CO)NC(=O)[C@H](Cc1c[nH]cn1)NC(=O)[C@H](CCCNC(=N)N)NC(=O)[C@H](CC(C)C)NC(=O)[C@H](Cc1ccccc1)NC(=O)[C@H](CC(N)=O)NC(=O)[C@H](C)NC(=O)[C@H](CC(C)C)NC(=O)[C@H](CCCNC(=N)N)NC(=O)[C@H](CCC(N)=O)NC(=O)[C@@H](NC(=O)[C@H](C)NC(=O)[C@@H]1CSSC[C@H](NC(=O)[C@@H](N)CCCCNC(=O)COCCOCCNC(=O)COCCOCCNC(=O)CC[C@H](NC(=O)CCCCCCCCCCCCCCCCCCC(=O)O)C(=O)O)C(=O)N[C@@H](CC(N)=O)C(=O)N[C@@H]([C@@H](C)O)C(=O)N[C@@H](C)C(=O)N[C@@H]([C@@H](C)O)C(=O)N1)[C@@H](C)O)C(=O)N1CCC[C@H]1C(=O)N[C@@H](CO)C(=O)N[C@@H](CO)C(=O)N[C@H](C(=O)N[C@@H](CC(N)=O)C(=O)N[C@H](C(=O)NCC(=O)N1CCC[C@H]1C(=O)N[C@@H](CC(N)=O)C(=O)N[C@H](C(=O)N[C@@H](Cc1ccc(O)cc1)C(N)=O)[C@@H](C)O)C(C)C)[C@@H](C)O
notes: also called 98; compound 98
B5: N^ε1-[2-[2-[2-[[2-[2-[2-[[(4S)-4-carboxy-4-(19-carboxynonadecanoylamino)butanoyl]amino]ethoxy]ethoxy]acetyl]amino]ethoxy]ethoxy]acetyl]-[Arg17,Pro21,Pro27,His34 … (peptide)
peptide: K([AEEA-AEEA-γGlu-C20 diacid])CNTATCATQRLANFLRHSSPNFGAIPSSTNVGHNTY-NH2
modifications: disulfide 2-7; N-terminus assumed
SMILES: CC[C@H](C)[C@H](NC(=O)[C@H](C)NC(=O)CNC(=O)[C@H](Cc1ccccc1)NC(=O)[C@H](CC(N)=O)NC(=O)[C@@H]1CCCN1C(=O)[C@H](CO)NC(=O)[C@H](CO)NC(=O)[C@H](Cc1c[nH]cn1)NC(=O)[C@H](CCCNC(=N)N)NC(=O)[C@H](CC(C)C)NC(=O)[C@H](Cc1ccccc1)NC(=O)[C@H](CC(N)=O)NC(=O)[C@H](C)NC(=O)[C@H](CC(C)C)NC(=O)[C@H](CCCNC(=N)N)NC(=O)[C@H](CCC(N)=O)NC(=O)[C@@H](NC(=O)[C@H](C)NC(=O)[C@@H]1CSSC[C@H](NC(=O)[C@@H](N)CCCCNC(=O)COCCOCCNC(=O)COCCOCCNC(=O)CC[C@H](NC(=O)CCCCCCCCCCCCCCCCCCC(=O)O)C(=O)O)C(=O)N[C@@H](CC(N)=O)C(=O)N[C@@H]([C@@H](C)O)C(=O)N[C@@H](C)C(=O)N[C@@H]([C@@H](C)O)C(=O)N1)[C@@H](C)O)C(=O)N1CCC[C@H]1C(=O)N[C@@H](CO)C(=O)N[C@@H](CO)C(=O)N[C@H](C(=O)N[C@@H](CC(N)=O)C(=O)N[C@H](C(=O)NCC(=O)N[C@@H](Cc1c[nH]cn1)C(=O)N[C@@H](CC(N)=O)C(=O)N[C@H](C(=O)N[C@@H](Cc1ccc(O)cc1)C(N)=O)[C@@H](C)O)C(C)C)[C@@H](C)O
notes: also called 97; compound 97
B6: N^ε1-[2-[2-[2-[[(4S)-4-carboxy-4-(19-carboxynonadecanoylamino)butanoyl]amino]ethoxy]ethoxy]acetyl]-[Arg14,Arg17,Pro21,Pro27,Pro31]-h-amylin (peptide)
peptide: K([AEEA-γGlu-C20 diacid])CNTATCATQRLARFLRHSSPNFGAIPSSTPVGSNTY-NH2
modifications: disulfide 2-7; N-terminus assumed
SMILES: CC[C@H](C)[C@H](NC(=O)[C@H](C)NC(=O)CNC(=O)[C@H](Cc1ccccc1)NC(=O)[C@H](CC(N)=O)NC(=O)[C@@H]1CCCN1C(=O)[C@H](CO)NC(=O)[C@H](CO)NC(=O)[C@H](Cc1c[nH]cn1)NC(=O)[C@H](CCCNC(=N)N)NC(=O)[C@H](CC(C)C)NC(=O)[C@H](Cc1ccccc1)NC(=O)[C@H](CCCNC(=N)N)NC(=O)[C@H](C)NC(=O)[C@H](CC(C)C)NC(=O)[C@H](CCCNC(=N)N)NC(=O)[C@H](CCC(N)=O)NC(=O)[C@@H](NC(=O)[C@H](C)NC(=O)[C@@H]1CSSC[C@H](NC(=O)[C@@H](N)CCCCNC(=O)COCCOCCNC(=O)CC[C@H](NC(=O)CCCCCCCCCCCCCCCCCCC(=O)O)C(=O)O)C(=O)N[C@@H](CC(N)=O)C(=O)N[C@@H]([C@@H](C)O)C(=O)N[C@@H](C)C(=O)N[C@@H]([C@@H](C)O)C(=O)N1)[C@@H](C)O)C(=O)N1CCC[C@H]1C(=O)N[C@@H](CO)C(=O)N[C@@H](CO)C(=O)N[C@H](C(=O)N1CCC[C@H]1C(=O)N[C@H](C(=O)NCC(=O)N[C@@H](CO)C(=O)N[C@@H](CC(N)=O)C(=O)N[C@H](C(=O)N[C@@H](Cc1ccc(O)cc1)C(N)=O)[C@@H](C)O)C(C)C)[C@@H](C)O
notes: also called 64; compound 64

The experiment has as its target T1, human amylin receptor (amylin 3(a) …). The experiment in a line: SPA displacement of 125I-rat amylin, hAmylin 3(a) receptor membranes. The method in brief: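 Cell membranes were prepared by homogenisation in Na-HEPES/EDTA buffer, pH 7.4, and stored at −80° C. They were then coupled to SPA beads at 35 ng/μL final and exposed to compounds in assay buffer containing CaCl2, MgCl₂, OA and Tween20. After 120 min at 25° C, plates were counted and IC₅₀ derived.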
Regarding B1, the IC50 amounted to 0.768 nM.
Consider B2, for which the IC50 was 0.172 nM.
As for B3, the IC50 is 0.166 nM.
For B4, the IC50 was determined as 0.091 nM.
Turning to B5, the IC50 is 0.568 nM.
B6: the IC50 turned out to be 0.444 nM.
